Experimental data as given in patent US20250297255A1 (ARSENAL BIOSCIENCES, published 2025).
Positions count from the first letter of the chain named.

B1: TMPRSS4 Ab18 scFv (VH-VL) (scFv)
scFv: QVQLVQSGAEVKKPGASVKVSCKASGYTFTSSGINWVRQAPGQGLEWMGWINPNSGGAKYAQRFQGRVTMTRDTSTSTVYMELSSLRSEDTAVYYCARARGYSGSKRDFQHWGQGTLVTVSSGGGGSGGGGSGGGGSDIVMTQSPDSLAVSLGERATINCKSSQSVLYSSNNKNYLAWYQQKPGQPPKLLIYWASTRESGVPDRFSGSGSGTDFTLTISSLQAEDVAVYHCQQYYNTPFTFGPGTKVDIK
notes: on monoclonal phage in the screen
B2: TMPRSS4 Ab20 scFv (VH-VL) (scFv)
scFv: QVQLVQSGAEVKKPGASVKVSCKASGYTFTRYYMHWVRQAPGQGLEWMGWMNPNSGNAGYAQKLQGRVTMTRDTSTSTVYMELSSLRSEDTAVYYCARGYNWFDPWGQGTLVTVSSGGGGSGGGGSGGGGSDIQMTQSPSSLSASVGDRVTITCRASQNIATYLSWYQQKPGKAPKLLIYGASALRSGVPSRFSGSGSGTDFTLTISSLQPEDFATYYCLQHNTYPLTFGGGTKVEIK
notes: as for B1
B3: TMPRSS4 Ab19 scFv (VH-VL) (scFv)
scFv: QVQLVQSGAEVKKPGASVKVSCKASGYTFNRKFMHWVRQAPGQGLEWMGWMNPNNGATNYAQKFQGRVTMTRDTSTSTVYMELSSLRSEDTAVYYCARGRGYYGSGSYYGDYWGQGTLVTVSSGGGGSGGGGSGGGGSDIQMTQSPSSLSASVGDRVTITCRASQSISRYLNWYQQKPGKAPKLLIYGASNLQSGVPSRFSGSGSGTDFTLTISSLQPEDFATYYCQQSYSTPPTFGPGTKVDIK
notes: as for B1
B4: TMPRSS4 Ab22 scFv (VH-VL) (scFv)
scFv: QVQLVQSGAEVKKPGASVKVSCKASGYTFTSYYMHWVRQAPGQGLEWMGRINPHSGDADFVDKFQGRVTMTRDTSTSTVYMELSSLRSEDTAVYYCARDRRGYGGNSLDYWGQGTLVTVSSGGGGSGGGGSGGGGSDIQMTQSPSSLSASVGDRVTITCRAGQNIKRYLNWYQQKPGKAPKLLIYAASSLQSGVPSRFSGSGSGTDFTLTISSLQPEDFATYYCQQSYSSPLTFGGGTKVEIK
notes: as for B1
B5: TMPRSS4 Ab23 scFv (VH-VL) (scFv)
scFv: QVQLVQSGAEVKKPGASVKVSCKASGYTFTRNYLHWVRQAPGQGLEWMGIINPSGGSTTYAQKFQGRVTMTRDTSTSTVYMELSSLRSEDTAVYYCARGRTWFRSGMDVWGQGTTVTVSSGGGGSGGGGSGGGGSEIVMTQSPATLSVSPGERATLSCRASQSVGNYLAWYQQKPGQAPRLLIYGASTRATGIPARFSGSGSGTEFTLTISSLQSEDFAVYYCQQYHSSPPYTFGQGTKVEIK
notes: as for B1
B6: TMPRSS4 Ab11 scFv (VH-VL) (scFv)
scFv: QVQLVQSGAEVKKPGASVKVSCKASGGTFSNYAISWVRQAPGQGLEWVGRINPNSGGTNYAQKFQGRVTMTRDTSTSTVYMELSSLRSEDTAVYYCARGRYSSSSWGQGTLVTVSSGGGGSGGGGSGGGGSDIQMTQSPSSLSASVGDRVTITCRASQSINNYLNWYQQKPGKAPKLLIYAASSLQSGVPSRFSGSGSGTDFTLTISSLQPEDFATYYCQQSYSTKWTFGQGTKVEIK
notes: as for B1
B7: TMPRSS4 Ab28 scFv (VH-VL) (scFv)
scFv: QVQLVQSGAEVKKPGASVKVSCKASGYTFTGYYMHWVRQAPGQGLEWMGWMNPNSGNTGYAQKFQGRVTMTRDTSTSTVYMELSSLRSEDTAVYYCARLRAKGGGFDYWGQGTLVTVSSGGGGSGGGGSGGGGSDIQMTQSPSSLSASVGDRVTITCRASQGIGNYLAWYQQKPGKAPKLLIYAASSLESGVPSRFSGSGSGTDFTLTISSLQPEDFATYYCQQGYRFPPTFGPGTKVDIK
notes: as for B1
B8: TMPRSS4 Ab16 scFv (VH-VL) (scFv)
scFv: QVQLVQSGAEVKKPGASVKVSCKASGYTFSRHYMHWVRQAPGQGLEWMGRINPNSGGTNYAQKFQGRVTMTRDTSTSTVYMELSSLRSEDTAVYYCARSIYGDYWFDPWGQGTLVTVSSGGGGSGGGGSGGGGSDIQMTQSPSSLSASVGDRVTITCRASQSINRWLAWYQQKPGKAPKLLIYGASNLQSGVPSRFSGSGSGTDFTLTISSLQPEDFATYYCQQANSFPYTFGQGTKLEIK
notes: as for B1
B9: TMPRSS4 Ab12 scFv (VH-VL) (scFv)
scFv: QVQLVQSGAEVKKPGASVKVSCKASGYTFSNYYIHWVRQAPGQGLEWMGWINPNSGDTNYAQKFQGRVTMTRDTSTSTVYMELSSLRSEDTAVYYCARGMTWRTSAATYWGQGTLVTVSSGGGGSGGGGSGGGGSDIQMTQSPSSLSASVGDRVTITCRASQGISRWLAWYQQKPGKAPKLLIYGASNLQTGVPSRFSGSGSGTDFTLTISSLQPEDFATYYCQQSYSTPPTFGPGTKVDIK
notes: as for B1
B10: TMPRSS4 Ab15 scFv (VH-VL) (scFv)
scFv: QVQLVQSGAEVKKPGASVKVSCKASGYTFTRYYMHWVRQAPGQGLEWMGWINPNSGVTNFAQKFQGRVTMTRDTSTSTVYMELSSLRSEDTAVYYCARVRIGWLQSPPLYWGQGTLVTVSSGGGGSGGGGSGGGGSDIQMTQSPSSLSASVGDRVTITCRASQSINTWLAWYQQKPGKAPKLLIYAASSLQSGVPSRFSGSGSGTDFTLTISSLQPEDFATYYCQQAISFPLTFGGGTKVEIK
notes: as for B1
B11: TMPRSS4 Ab46 scFv (VH-VL) (scFv)
scFv: B10 scFv with T30S, Y33F, V57G, F60Y, N166S, A227S, I228Y, S229G, L232W, G236Q
notes: as for B1
B12: TMPRSS4 Ab13 scFv (VH-VL) (scFv)
scFv: QVQLVQSGAEVKKPGASVKVSCKASGYTFTNYYMHWVRQAPGQGLEWMGWISAYNGNTNYAQKLQGRVTMTRDTSTSTVYMELSSLRSEDTAVYYCATASGWGHSNSAGYWGQGTLVTVSSGGGGSGGGGSGGGGSEIVMTQSPATLSVSPGERATLSCRASQSVNGNYLAWYQQKPGQAPRLLIYGVSSRASGIPARFSGSGSGTEFTLTISSLQSEDFAVYYCQQYGSSPYTFGQGTKVEIK
notes: as for B1
B13: TMPRSS4 Ab14 scFv (VH-VL) (scFv)
scFv: EVQLLESGGGLVQPGGSLRLSCAASGFTFSNHYMSWVRQAPGKGLEWVSAISGSGGSTYYADSVKGRFTISRDNSKNTLYLQMNSLRAGDTAVYYCARDRYRWGRGYFQHWGQGTLVTVSSGGGGSGGGGSGGGGSDIQMTQSPSSLSASVGDRVTITCRASQRISTYLNWYQQKPGKAPKLLIYSASTLQAGVPSRFSGSGSGTDFTLTISSLQPEDFATYYCQQAYSLPWTFGQGTKLEIK
notes: as for B1
B14: TMPRSS4 Ab25 scFv (VH-VL) (scFv)
scFv: QVQLVQSGAEVKKPGASVKVSCKASGGRFSTYALSWVRQAPGQGLEWMGWINPNSGGTNYAQKFQGRVTMTRDTSTSTVYMELSSLRSEDTAVYYCAKSLWWSPSHYYYYGMDVWGQGTTVTVSSGGGGSGGGGSGGGGSEIVMTQSPATLSVSPGERATLSCRASQSVSSNYLAWYQQKPGQAPRLLIYGISTRASGIPARFSGSGSGTEFTLTISSLQSEDFAVYYCQQRSNWPPSITFGQGTRLEIK
notes: as for B1
B15: TMPRSS4 Ab24 scFv (VH-VL) (scFv)
scFv: QVQLVQSGAEVKKSGASVKVSCKASGYTFTSYYMHWVRQAPGQGLEWMGVINPSGGTTSYAQKFQGRVTMTRETSTSTVYMELSSLRSEDTAVYYCARGRGWLRSALGYWGQGTLVTVSSGGGGSGGGGSGGGGSDIQMTQSPSSLSASVGDRVTITCRASQSISSWLAWYQQKPGKAPKLLIYAASTLQSGVPSRFSGSGSGTDFTLTISSLQPEDFATYYCQQSYNTPYTFGQGTKLEIK
notes: as for B1
B16: TMPRSS4 Ab17 scFv (VH-VL) (scFv)
scFv: QVQLVQSGAEVKKPGASVKVSCKASGYTFTSYYIHWVRQAPGQGLEWMGWMSPNSGDTGYAQKFQGRVTMTRDTSTSTVYMELSSLRSEDTAVYYCARLVRGGFDYWGQGTLVTVSSGGGGSGGGGSGGGGSDIQMTQSPSSLSASVGDRVTITCRASQGISSYLNWYQQKPGKAPKLLIYAASRLQSGVPSRFSGSGSGTDFTLTISSLQPEDFATYYCQQSYRSPPTFGQGTKLEIK
notes: as for B1
B17: TMPRSS4 Ab27 scFv (VH-VL) (scFv)
scFv: QVQLVQSGAEVKKPGASVKVSCKASGYTFSRYYMHWVRQAPGQGLEWMGWMNPNSGDTGYAQKFQGRVTMTRDTSTSTVYMELSSLRSEDTAVYYCAKGREWLRSPFDYWGQGTLVTVSSGGGGSGGGGSGGGGSDIQMTQSPSSLSASVGDRVTITCRASQSISTWLAWYQQKPGKAPKLLIYAASSLQSGVPSRFSGSGSGTDFTLTISSLQPEDFATYYCQQLSSYPLTFGQGTKVEIK
notes: as for B1
B18: TMPRSS4 Ab26 scFv (VH-VL) (scFv)
scFv: EVQLLESGGGLVQPGGSLRLSCAASGFTFSSYAMHWVRQAPGKGLEWVAVIWYDGSSKYYADSVKGRFTISRDNSKNTLYLQMNSLRAEDTAVYYCARGEVRRGFQHWGQGTLVTVSSGGGGSGGGGSGGGGSDIQMTQSPSSLSASVGDRVTITCRASQNVGSWLAWYQQKPGKAPKLLIYAASSLQSGVPSRFSGSGSGTDFTLTIRSLQPEDFATYYCQQSYSTPITFGQGTRLEIK
notes: as for B1
B19: TMPRSS4 Ab2 scFv (VH-VL) (scFv)
scFv: EVQLLESGGGLVQPGGSLRLSCAASGFTFSDYYMSWVRQAPGKGLEWVSYISGSGDAIYYADSVKGRFTISRDNSKNTLYLQMNSLRAEDTAVYYCARDRSDCGGDDRFLCDGYFDLWGRGTLVSLSGGGGSGGGGSGGGGSDIQMTQSPSSLSASVGDRVTITCRASQSTNNYVNWYQQKPGKAPKLLIYAASSLQSGVPSRFSGSGSGTDFTLTISSLQPEDFATYYCQQSYSIPLTFGPGTKVDIK
notes: as for B1
B20: TMPRSS4 Ab10 scFv (VH-VL) (scFv)
scFv: QVQLVQSGAEVKKPGASVKVSCKASGYTFTSYYMHWVRQAPGQGLEWMGIINPSGAGTTYGHNFQGRVTMTRDTSTSTVYMELSSLRSEDTAVYYCARGPRDTAMVRFDYWGQGTLVTVSSGGGGSGGGGSGGGGSEIVMTQSPATLSVSPGERATLSCRASQSVSSYLAWYQQKPGQAPRLLIYGASTRATGIPARFSGSGSGTEFTLTISSLQSEDFAVYYCQQYGSSPGTFGQGTKLEIK
notes: as for B1
B21: TMPRSS4 Ab1 scFv (VH-VL) (scFv)
scFv: QVQLVQSGAEVKKPGSSVKVSCKASGYTFTDYYMHWVRQAPGQGLEWMGGIIPIFGTANYAQKFQGRVTITADESTSTAYMELSSLRSEDTAVYYCAKEGANGYWGQGTLVTVSSGGGGSGGGGSGGGGSDIQMTQSPSSLSASVGDRVTITCQASQDISNYLNWYQQKPGKAPKLLIYKASSLESGVPSRFSGSGSGTDFTLTISSLQPEDFATYYCQQSSRIPPTFGQGTKVEIK
notes: as for B1

Molecular target: T1, Human TMPRSS4 (Transmembrane protease, serine 4), wild type full length (human, UniProt Q9NRS4 1-437)
T1 construct: Type II membrane protein over-expressed on HEK293T cells (also endogenous on H1975 and LUDLU-1 cells); also called TMPRSS4 WT; HEK293T-TMPRSS4
Assay: flow cytometry, monoclonal phage on HEK293T-TMPRSS4 cells;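 note: bound phage detected with a PE-labelled mouse anti-M13 monoclonal antibody, read by flow cytometry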

T1 sequence (Q9NRS4 whole entry): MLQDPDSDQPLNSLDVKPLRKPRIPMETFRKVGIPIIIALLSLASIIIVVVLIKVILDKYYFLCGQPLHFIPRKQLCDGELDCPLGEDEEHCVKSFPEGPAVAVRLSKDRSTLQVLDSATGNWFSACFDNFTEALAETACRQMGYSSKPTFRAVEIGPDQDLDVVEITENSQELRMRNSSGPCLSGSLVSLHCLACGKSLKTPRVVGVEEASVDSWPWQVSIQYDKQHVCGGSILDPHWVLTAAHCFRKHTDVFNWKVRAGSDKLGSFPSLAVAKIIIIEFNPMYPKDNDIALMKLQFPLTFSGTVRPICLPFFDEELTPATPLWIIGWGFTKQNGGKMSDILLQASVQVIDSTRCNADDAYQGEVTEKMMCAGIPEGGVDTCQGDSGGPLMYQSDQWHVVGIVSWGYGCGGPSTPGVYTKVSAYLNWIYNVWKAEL

Binder	binding result
B1	binds
B2	binds
B3	binds
B4	binds
B5	binds
B6	binds
B7	binds
B8	binds
B9	binds
B10	binds
B11	binds
B12	binds
B13	binds
B14	binds
B15	binds
B16	binds
B17	binds
B18	binds
B19	binds
B20	binds
B21	binds
